This is an account of results in IntAct's records for PubMed 29039417.

B1: BBSome complex member BBS1 (Homo sapiens), Q8NFJ9 (parent)
chain: MAAASSSDSDACGAESNEANSKWLDAHYDPMANIHTFSACLALADLHGDGEYKLVVGDLGPGGQQPRLKVLKGPLVMTESPLPALPAAAATFLMEQHEPRTPALALASGPCVYVYKNLRPYFKFSLPQLPPNPLEQDLWNQAKEDRIDPLTLKEMLESIRETAEEPLSIQSLRFLQLELSEMEAFVNQHKSNSIKRQTVITTMTTLKKNLADEDAVSCLVLGTENKELLVLDPEAFTILAKMSLPSVPVFLEVSGQFDVEFRLAAACRNGNIYILRRDSKHPKYCIELSAQPVGLIRVHKVLVVGSTQDSLHGFTHKGKKLWTVQMPAAILTMNLLEQHSRGLQAVMAGLANGEVRIYRDKALLNVIHTPDAVTSLCFGRYGREDNTLIMTTRGGGLIIKILKRTAVFVEGGSEVGPPPAQAMKLNVPRKTRLYVDQTLREREAGTAMHRAFQTDLYLLRLRAARAYLQALESSLSPLSTTAREPLKLHAVVQGLGPTFKLTLHLQNTSTTRPVLGLLVCFLYNEALYSLPRAFFKVPLLVPGLNYPLETFVESLSNKGISDIIKVLVLREGQSAPLLSAHVNMPGSEGLAAA
partner: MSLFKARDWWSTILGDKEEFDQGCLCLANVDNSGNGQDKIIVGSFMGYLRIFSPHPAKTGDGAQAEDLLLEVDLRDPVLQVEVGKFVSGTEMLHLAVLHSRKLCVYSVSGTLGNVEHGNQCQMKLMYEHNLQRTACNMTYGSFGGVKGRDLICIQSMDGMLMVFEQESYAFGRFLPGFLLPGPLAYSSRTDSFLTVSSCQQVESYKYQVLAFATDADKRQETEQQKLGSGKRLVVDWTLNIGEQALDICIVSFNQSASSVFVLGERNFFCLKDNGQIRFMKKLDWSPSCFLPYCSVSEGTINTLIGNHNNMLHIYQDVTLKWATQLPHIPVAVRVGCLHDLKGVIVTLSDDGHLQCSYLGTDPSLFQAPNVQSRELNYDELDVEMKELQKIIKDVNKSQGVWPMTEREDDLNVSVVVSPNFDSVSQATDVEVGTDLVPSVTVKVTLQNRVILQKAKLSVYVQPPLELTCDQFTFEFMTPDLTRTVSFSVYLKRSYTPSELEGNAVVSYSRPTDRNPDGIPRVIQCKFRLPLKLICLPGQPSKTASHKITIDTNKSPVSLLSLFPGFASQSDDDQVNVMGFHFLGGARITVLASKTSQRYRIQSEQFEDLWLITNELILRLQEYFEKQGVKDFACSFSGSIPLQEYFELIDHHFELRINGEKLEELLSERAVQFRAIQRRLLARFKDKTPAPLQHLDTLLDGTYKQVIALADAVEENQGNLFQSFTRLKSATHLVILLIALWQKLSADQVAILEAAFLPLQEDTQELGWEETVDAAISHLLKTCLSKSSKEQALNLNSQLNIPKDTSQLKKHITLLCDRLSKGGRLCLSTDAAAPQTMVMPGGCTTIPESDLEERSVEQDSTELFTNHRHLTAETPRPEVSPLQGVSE

In this experiment the parent is B1. Conditions: with pthb1_human BBS9, Q3SYG4.
In the case of MAAASSSDSDACGAESNEANSKWLDAHYDPMANIHTFSACLALADLHGDGEYKLVVGDLGPGGQQPRLKVLKGPLVMTESPLPALPAAAATFLMEQHEPRTPALALASGPCVYVYKNLRPYFKFSLPQLPPNPLEQDLWNQAKEDRIDPLTLKEMLESIRETAEEPLSIQSLRFLQLELSEMEAFVNQHKSNSIKRQTVITTMTTLKKNLADEDAVSCLVLGTENKELLVLDPEAFTILAKMSLPSVPVFLEVSGQFDVEFRLAAACRNGNIYILRRDSKHPKYCIELSAQPVGLIRVHKVLVVGSTQDSLHGFTHKGKKLWTVQMPAAILTMNLLEQHSRGLQAVMAGLANGEVRIYRDKALLNVIHTPDAVTSLCFGRYGREDNTLIMTTRGGGLIIKILKRTAVFVEGGSEVGPPPAQAMKLNVPRKTRLYVDQTLREREAGTAMHRAFQTDLYLLRLRAARAYLQALESSLSPLSTTAREPLKLHAVVQGLGPTFKLTLHLQNTSTTRPVLGLLECFLYNEALYSLPRAFFKVPLLVPGLNYPLETFVESLSNKGISDIIKVLVLREGQSAPLLSAHVNMPGSEGLAAA [V519E], the “effect of a mutation on the interaction” value is given as “disrupting interaction strength”.

Regarding MAAASSSDSDACGAESNEANSKWLDAHYDPMANIHTFSACLALADLHGDGEYKLVVGDLGPGGQQPRLKVLKGPLVMTESPLPALPAAAATFLMEQHEPRTPALALASGPCVYVYKNLRPYFKFSLPQLPPNPLEQDLWNQAKEDRIDPLTLKEMLESIRETAEEPLSIQSLRFLQLELSEMEAFVNQHKSNSIKRQTVITTMTTLKKNLADEDAVSCLVLGTENKELLVLDPEAFTILAKMSLPSVPVFLEVSGQFDVEFRLAAACRNGNIYILRRDSKHPKYCIELSAQPVGLIRVHKVLVVGSTQDSLHGFTHKGKKLWTVQMPAAILTMNLLEQHSRGLQAVMAGLANGEVRIYRDKALLNVIHTPDAVTSLCFGRYGREDNTLIMTTRGGGLIIKILKRTAVFVEGGSEVGPPPAQAMKLNVPRKTRLYVDQTLREREAGTAMHRAFQTDLYLLRLRAARAYLQALESSLSPLSTTAREPLKLHAVVQGLGPTFKLTLHLQNTSTTRPVLGLPVCFLYNEALYSLPRAFFKVPLLVPGLNYPLETFVESLSNKGISDIIKVLVLREGQSAPLLSAHVNMPGSEGLAAA [L518P], the “effect of a mutation on the interaction” value is recorded as “disrupting interaction strength”.

Turning to MAAASSSDSDACGAESNEANSKWLDAHYDPMANIHTFSACLALADLHGDGEYKLVVGDLGPGGQQPRLKVLKGPLVMTESPLPALPAAAATFLMEQHEPRTPALALASGPCVYVYKNLRPYFKFSLPQLPPNPLEQDLWNQAKEDRIDPLTLKEMLESIRETAEEPLSIQSLRFLQLELSEMEAFVNQHKSNSIKRQTVITTMTTLKKNLADEDAVSCLVLGTENKELLVLDPEAFTILAKMSLPSVPVFLEVSGQFDVEFRLAAACRNGNIYILRRDSKHPKYCIELSAQPVGLIRVHKVLVVGSTQDSLHGFTHKGKKLWTVQMPAAILTMNLLEQHSRGLQAVMAGLANGEVRIYRDKALLNVIHTPDAVTSLCFGRYGREDNTLIMTTRGGGLIIKILKRTAVFVEGGSEVGPPPAQAMKLNVPRKTRLYVDQTLREREAGTAMHRAFQTDLYLLRLRAARAYLQALESSLSPLSTTAREPLKLHAVVQGLGPTFKLTLHLQNTSTTRPVLGLEVCFLYNEALYSLPRAFFKVPLLVPGLNYPLETFVESLSNKGISDIIKVLVLREGQSAPLLSAHVNMPGSEGLAAA [L518E], the “effect of a mutation on the interaction” value was “with no effect”.

In the case of MAAASSSDSDACGAESNEANSKWLDAHYDPMANIHTFSACLALADLHGDGEYKLVVGDLGPGGQQPRLKVLKGPLVMTESPLPALPAAAATFLMEQHEPRTPALALASGPCVYVYKNLRPYFKFSLPQLPPNPLEQDLWNQAKEDRIDPLTLKEMLESIRETAEEPLSIQSLRFLQLELSEMEAFVNQHKSNSIKRQTVITTMTTLKKNLADEDAVSCLVLGTENKELLVLDPEAFTILAKMSLPSVPVFLEVSGQFDVEFRLAAACRNGNIYILRRDSKHPKYCIELSAQPVGLIRVHKVLVVGSTQDSLHGFTHKGKKLWTVQMPAAILTMNLLEQHSRGLQAVMAGLANGEVRIYRDKALLNVIHTPDAVTSLCFGRYGREDNTLIMTTRGGGLIIKILKRTAVFVEGGSEVGPPPAQAMKLNVPRKTRLYVDQTLREREAGTAMHRAFQTDLYLLRLRAARAYLQALESSLSPLSTTAREPLKLHAVVQGLGPTFKLTLHLQNTSTTRPVLGLKVCFLYNEALYSLPRAFFKVPLLVPGLNYPLETFVESLSNKGISDIIKVLVLREGQSAPLLSAHVNMPGSEGLAAA [L518K], the “effect of a mutation on the interaction” value was “with no effect”.

Turning to MAAASSSDSDACGAESNEANSKWLDAHYDPMANIHTFSACLALADLHGDGEYKLVVGDLGPGGQQPRLKVLKGPLVMTESPLPALPAAAATFLMEQHEPRTPALALASGPCVYVYKNLRPYFKFSLPQLPPNPLEQDLWNQAKEDRIDPLTLKEMLESIRETAEEPLSIQSLRFLQLELSEMEAFVNQHKSNSIKRQTVITTMTTLKKNLADEDAVSCLVLGTENKELLVLDPEAFTILAKMSLPSVPVFLEVSGQFDVEFRLAAACRNGNIYILRRDSKHPKYCIELSAQPVGLIRVHKVLVVGSTQDSLHGFTHKGKKLWTVQMPAAILTMNLLEQHSRGLQAVMAGLANGEVRIYRDKALLNVIHTPDAVTSLCFGRYGREDNTLIMTTRGGGLIIKILKRTAVFVEGGSEVGPPPAQAMKLNVPRKTRLYVDQTLREREAGTAMHRAFQTDLYLLRLRAARAYLQALESSLSPLSTTAREPLKLHAVVQGLGPTFKLTLHLQNTSTTRPVLGLAVCFLYNEALYSLPRAFFKVPLLVPGLNYPLETFVESLSNKGISDIIKVLVLREGQSAPLLSAHVNMPGSEGLAAA [L518A], the “effect of a mutation on the interaction” value is “with no effect”.
